Data published in patent publication US6132711A, “Enzymatic antioxidant of allene oxide for lipid peroxidation in biological systems” (Arizona Board of Regents, priority 1997, dated 2000).
“Also recorded” adds a separate entry of the source.

Columns and labels:
[1] = test system: linoleic acid hydro peroxide (LOOH); assay: AOS activity assay: degradation of linoleic hydroperoxide (LOOH) followed at 234 nm; format: biochemical, guayule
Experimental: A difference spectra of this extract clearly indicated a characteristic peak at 450 nm (arrow, FIG. 6C). […] This substrate was prepared according to Zimmerman (Zimmerman, Biochem. Biophys. Res. Comm. 23:398-403 (1966); Zimmerman and Feng, Lipids 13:313-316 (1978); Zimmerman and Vick, Plant. Physiol. 46:445-453 (1970)).
(1991) and Zimmerman, op cit. (1966); Zimmerman and Vick, op cit. (1970) and Zimmerman and Feng, op cit. (1978)

[2] = Prenyltransferase activity: incorporation of 14C-isopentenyl pyrophosphate into isoprenoid derivatives, TLC; format: biochemical, guayule; details: CHAPS-solubilized, filtered RPP; DMAPP as initiator; 100 μl aliquots
Experimental: Biochemical analyses were performed on RPP purified from rubber particles. Three-times-washed rubber particles were prepared by centrifugation according to Cornish and Backhaus, op cit. (1990) from a crude homogenate of guayule stembark. […] Prenyltransferase activity was determined for each purification step by measuring the incorporation of ^14 C-isopentenyl pyrophosphate into isoprenoid derivatives that were analyzed by TLC (benzene/ethyl acetate, 90/10) and autoradiography (Dogbo and Camara, Plant Sci. 49: 103-109 (1987); Kuntz et al., Plant J. 2:25-34 (1992)). Dimethylallyl pyrophosphate (DMAPP) was used as the initiator to measure activity in 100 μl aliquots of proteins from each of the three steps (FIG. 6B, lanes 1-3). […] However, prenyltransferase activity was present in both the crude homogenate and washed preparations containing rubber particles (cf. FIG. 6B, lane 3 with lanes 1 and 2). […]
Washed rubber particles were prepared by centrifugation according to Cornish and Backhaus, op cit.(1990) from a crude homogenate of guayule stembark. […] Prenyltransferase activity was determined for each purification step by measuring the incorporation of ^14 C-isopentenyl pyrophosphate into isoprenoid derivatives according to Dogbo and Camara, op cit. […]

[3] = test system: linoleic acid conjugated dienes; assay: UV spectrophotometry of superoxide-induced linoleic acid conjugated dienes (A234); format: biochemical, guayule
Experimental: Likewise, the effect of superoxide, produced by the riboflavin/TEMED mixture and light, on lipid peroxidation was determined. […] The mixture was exposed to light and scanned in a UV spectrophotometer at 200 to 300 nm at 10 sec intervals for 2 minutes and again at 5 and 10 min. The effect of AOS on superoxide-inducedlinoleic hydroperoxides was determined using partially pure AOS solubilized from fresh rubber particles using the CHAPS extraction and filtration procedure (Pan et al., J Biol Chem 270: 8487-8494, 1995), which removed all remaining rubber. One μg partially pure AOS was added to oxidized linoleic acid and UV scanned at 2 minute intervals.
This mixture was scanned at A234 followed by addition of riboflavin/TEMED and exposure to 10 min. of light, to produce superoxide. The mixture was rescanned at 10 min intervals.

tobacco leaf disks = assay: Cell leakage analysis of leaf disks treated with methyl viologen; format: cell-based, tobacco cv. Samsun; details: transgenic AOS tobacco vs untransformed control; 1.2 μM methyl viologen
Experimental: Transgenic cv. Samsun tobacco plants that […] AOS and untransformed cv. Samsun plants were gown in a growth chamber maintained at 28° C. and an irradiance of 500 μmole quanta per square meter per sec. at 16 hours per day. Leaf disks of transgenic plants (FIG. 20, disks 3, 6, 14 and 17) were compared with untransformed plants (FIG. 20, disk C) according to the general method set forth in Gupta et al., Proc. Natl. Acad. Sci. USA 90: 1629-1633 (1993).
Leaf disks (2 cm^2) were collected from tobacco plants and placed in petri dishes (15×60 mm) containing 4 ml of a 1.2 μM methyl viologen (MV) solution and vacuum infiltrated for 5 min. MV values are means ±SD (n=4). The samples were incubated at 22° C. for 16 hours in darkness followed by illumination at 500 μM quanta per square meter per sec. for 2 hours. The leaf disks then were incubated for an additional 16 hours in darkness.
The MV solution was collected for conductivity with leaf disks then was autoclaved for 10 min. at 121° C. The conductivity of the autoclaved solution was again measured. The present electrolyte leakage was determined by dividing the value of conductivity of MV solution by the value obtained after autoclaving.

[4] = Backhaus et al. 1991; cited from earlier work
lipid hydroperoxides = details: Hamberg 1987; cited from earlier work

B1: RPP: polypeptide of 53,500 Daltons from guayule rubber particles; non-mono-oxygenase cytochrome P450 heme-binding protein, a species of allene oxide synthase (protein)
chain: MDPSSKPLREIPGSYGIPFFQPIKDRLEYFYGTGGRDEYFRSRMQKYQSTVFRANMPPGPFVSSNPKVIVLLDAKSFPILFDVSKVEKKDLFTGTYMPSTKLTGAYRVLSYLDPSEPRHAQLKNLLFFMLKNSSNRVIPQFETTYYELFEGLEAELAKNGKAAFNDVGEQAAFRFLGRAYFNSNPEETKLGTSAPTLISSWVLFNLAPTLDLGLPWFLQEPLLHTFRLPAFLIKSTYNKLYDYFQSVATPVMEQAEKLGVPKDEAVHNILFAVCFNTFGGVKILFPNTLKWIGVAGENLHTQLAEEIRGAIKSYGDGNVTLEAIEQMPLTKSVVYESLRIEPPVPPQYGKAKSNFTIESHDATFEVKKGEMLFGYQPFATKDPKVFDRPEEFVPDRFVGDGEALLKYVWWSNGPETESPTVENKQCAGKDFVVLITRLFVIELFRRYDSEIELGESPLGAAVTLTFLKRASI
AOS activity (LOOH degradation) ([1]; UV spectra at 10 sec intervals): high AOS activity
time to complete disappearance of LOOH (234 nm peak) ([1]; enzyme preparation added to cuvette with LOOH, repetitive UV scans at 10 sec intervals): 10 min
prenyltransferase activity [2]: complete absence of prenyltransferase activity; also recorded: synthesizes no isoprenes
A234 increase on exposure to light (superoxide) with AOS present ([3]; linoleic acid + riboflavin/TEMED + AOS): prevented the increase in A234
A234 (conjugated dienes) after AOS added to oxidized linoleic acid ([3]; linoleic acid oxidized by riboflavin/TEMED in light, 1 μg partially pure AOS, listed as AOS): A234 decreased; also recorded: time-dependent disappearance of conjugated dienes
percent electrolyte leakage (tobacco leaf disks): substantially less percent electrolyte leakage
isoelectric point (pI), experimental value [4]: 6.2
kcat (lipid hydroperoxides): > 1000 s⁻¹
